Experimental data as given in publication PMC9969106.

Key:
Settings in all cases: glycan lost; control: GlyRα1WT
[1] = whole-cell patch-clamp, saturating 1 mM glycine
[2] = whole-cell patch-clamp dose-response, HEK293
[3] = whole cell fraction western blot, normalized to pan-cadherin
[4] = whole-cell patch-clamp, 100 μM glycine

B1: GlyRα1: N38Q (protein)
parent chain: MYSFNTLRLYLWETIVFFSLAASKEAEAARSAPKPMSPSDFLDKLMGRTSGYDARIRPNFKGPPVNVSCNIFINSFGSIAETTMDYRVNIFLRQQWNDPRLAYNEYPDDSLDLDPSMLDSIWKPDLFFANEKGAHFHEITTDNKLLRISRNGNVLYSIRITLTLACPMDLKNFPMDVQTCIMQLESFGYTMNDLIFEWQEQGAVQVADGLTLPQFILKEEKDLRYCTKHYNTGKFTCIEARFHLERQMGYYLIQMYIPSLLIVILSWISFWINMDAAPARVGLGITTVLTMTTQSSGSRASLPKVSYVKAIDIWMAVCLLFVFSALLEYAAVNFVSRQHKELLRFRRKRRHHKSPMLNLFQEDEAGEGRFNFSAYGMGPACLQAKDGISVKGANNSNTTNPPPAPSKSPEEMRKLFIQRAKKIDKISRIGFPMAFLIFNMFYWIIYKIVRREDVHNQ
other: channel current, other: current amplitude [1]: no change, 5.0 ± 0.8 vs 6.0 ± 0.6 | other: glycine potency, EC50 [2]: decreases, 206 vs 85 | expression_or_secretion, other: relative expression [3]: no change, 0.57 ± 0.13 vs 1.0 ± 0.16, GlyRα1WT 1.0 ± 0.16; GlyRα1N38Q 0.57 ± 0.13; p = 0.1118 | other: channel current, other: current amplitude [4]: decreases, 1.0 ± 0.3 vs 3.6 ± 0.5
